According to a protein production outcome set (Wang et al. 2014):

Experiment: label from the status in PepcDB records

| Sequence | protein production |
| --- | --- |
| MNDLSQWSISKDSNLDSPWIEGIPGCGIPGAGSLVEHIDRQILVLQRDGRYIVGLLRSYDQYANLVLENTFERFVLNDSYCDEPLGVFIIRGENVALLGEVDGEKESQWLSHLHTVSLEDTKKTIRGKRQATKALLHSQPERVEWTFYDDAFF | not failed |
| MNDRACVSARTRWPLVSVLIPAFNHARFVQRCLDSVLEDPYPCKEIVIIDDGSRDATGEKISQWISDHGHRLPVHFVQRENRGVAATLNELALRARGEYLRLGASDDYLLPGGLDAQVRYLRGHPQKLAVIGDACVVDAHGQLMHASAMRDLHRVDKDLYRSESGIRHAVIRQWAVSGAVALLRRSALDARSRWDESLRIEDWDFFLRLVAGNALGFIDLPVCAYRLHGNNLSKTADVPARIANLCESRQVALRCAPLFDEPDRMLLHAQARYIAAKVEFLRRRPHRIAMHLAVYAGLSLSARWRPKRVARAAELA | failed |
| MNDRKILVAYFSCSGVTKAVAEKLAAITGADLYEIKPEVPYTEADLDWNDKKSRSSVEMRDALSRPAISGTLFHPEKYEVLFVGFPVWWYIAPTIINTFLESYDFAGKIVVPFATSGGSGIGNCEKNLHKAYPDIVWKDGKLLNGQITRDLVTEWFEKIRL | not failed |
| MNDSIKKINYLFICLFIFLNPLIPYNVKIHNNITVSDILLLVIFVLFLVEILRNRQKLKECFYIMLGDKTLFCLILLFIVMMISVTYAKEKPLALEESLRFFCYIGLYIILSLSYREEKHFKGFVTSFVASVTLISIIGIFQKITGMGIPHQYDYKVNGVTMVRVAAVFGNPNTLAAFMILSIFPIVMFAFFEKNLKKKAFYSILSVLIVYNAALTGSRNSYMGLALGFCVLALIYSIKLILPIIVLGGASMFLPQVTSRLRSIDNKNLNDARIKLWKTALKMIKDHPLSGVGNGNYIANYDAYVKQYPELRYADYSRFPVHNSYLKIESELGIFGGIFFVATIVNVFLKLYNTYKKTDIKIKKAFYLGFIASTSAFLFMNFSDNLLFVPSITSFFWMFVAIGDRH | failed |
| MNDTLLNAYSGIKTHQFGIDSLSNNIANVNTLGYRSNDPEFKTLFSSHLDALNAKSVVANDRNYGVTGSGNVLSNKDGEYMPSEGEFHMAYQGKGWFVIGPNKNGEITINKDGFSKKQDNFLTRAGNFARDADGYLVTPEGYYVYGIDLKKIKDGTLNSTARDEDIEKLHGNTLSPLQIPQDLTYQPVLSTKVNISVNLNPKDHLKGVQDFFLNDKGEIIKERFLNQDINALANNDNEPIDAITNRKLNISIQKEDGKKEDFVFTYGDAEKGENQFKTLGDLQKLLKEKTGLDLNLIKSEKDAKSPPLLLEIANPSQTPITFSLSGGIADKLGLKADGMELKKGISRDSVAIKIPYYSTEVDIYDKAGDKYLLQSEYYMTNSNDPTSSPTSKRKNQTWEVKSYIADPKNKTPINDPTWEIVGFDSATHKMKSAPMTLDFKGNKLTYSLDKSENHDSSDLSYQDSKLLEASQDGKPRGIFRDMRIEENGVISLAFSNGVVEPVARIGILAFTNDQGLRKIGGNLYEMQEGTINGENRPLSGNPILGWDEEGKLKFGKIRHKYLETSNVNAGNALTNLILMQRGYSMNARAFGAGDDMIKEAISLKK | failed |
| MNEIHQPLARRVWRSNVDEEMARMAECLKRFPLIAFDTEYPGIIFRTYFDSSSDECYRAMKGNVENTKLIQCGFTLFNAKGEIGGVWEINFSNFGDPSDTRNELSIEFLRRHGLDLQKIRDEGVDMFGYGFFPKLMTVFRSQKHVEFVTFQGAYDFAYFLSILNHGKLPETHGEFATEVVKVFGQVYDTKVMAGFCEGLGEHLGLSKLAQLLQITRVGRAHHAGSDSLMTALVFIKLKHVYEDSRFARGLIYGIGKSNLVAAPAPAPVPEPTLPLMCQQNVASYPVFHNGYVQNYEQPQLVSYDPSGAPWAFCNATGTYVQLTHLPASTFAYPSQTPSATVDYLGPVPNYYNNNACYVVE | failed |
| MNEIILITGAYGMVGQNTALYFKKNKPDVTLLTPKKSELCLLDKDNVQAYLKEYKPTGIIHCAGRVGGIVANMNDLSTYMVENLLMGLYLFSSALDSGVKKAINLASSCAYPKFAPNPLKESDLLNGSLEPTNEGYALAKLSVMKYCEYVSAEKGVFYKTLVPCNLYGEFDKFEEKIAHMIPGLIARMHTAKLKNEKEFAMWGDGTARREYLNAKDLARFISLAYENIASIPSVMNVGSGVDYSIEEYYEKVAQVLDYKGVFVKDLSKPVGMQQKLMDISKQRALKWELEIPLEQGIKEAYEYYLKLLEV | failed |
| MNEIYDREQMIKLLDLAKNTEMELPINLAIGLGLRISEVLGLTWDNIDFEENTITVNKITSRINGSVILKEPKTESSVRKISSPKELMSLLKEYKIKQNKNLLKSSIRNNNNLLFFNKKCEPIAEDVMSKKFKRFLEKNELPHIRFHDLRHSHVTLLINSKVPIKVISERVGHSNISTTLSVYSHVLKEMDKEASDKISESLFNANLEHHHHHH | not failed |
| MNEKKEQALFEYDAKLSISEAIPMGLQHVVAAVVGIVTPGIMIAKVCQLSPSDTTILIQTSLIFSAVATLIQLFPIFGKVGSRLPVMMGASFAYVPILMAIGADFGIAAIFGSQLVGSILVIIVGLFIKKIRVLFPPLVTGTVILSIGLSLFPVAIKYMAGGAGSADFGSARNWLVALLTFAIVFYFNYFAKGFLKLSAILNGMVIGYLISLALGMVSFEPVQNAKIVQVITPFHFGLDFQLVPIFTLVVMFIVDAVQAIGQFTATTVGAMDRDATDEELSGGIMGSGFTNFIGSLFGSIPVATFGQNVGLVTVTKVINKYVLVFASVILLIAGFVPKVAALLTTIPYAVIGGATISVFASISMTGIRMIASQEMTPRNTGVVGTALAFGIGVTLSTGSLAGFPTWVTTIFGNSEVILTTLVAVLLNVILKPKKRVALE | not failed |
| MNELTQSDNYQLLNRELAAPDPWGLDANPFERERHTQMLRLALAQGSISSALEVGCAAGAFTVQLAPHCKRLTVIDVVPQAIERSRRRIRGSPHISWIVSDVQQFSPDERFDLIVVAEVLYYIGGIAEMRGAVRNLVRMLAPDGYLVFGSARDANCRRWGHVAGAETILGMLNETLLEVERLECRGESVNEDCLLACFRNPFSAS | failed |
| MNENDKEYQASLKSLETENIIDRKFYRPIGFYFAKLLSRTRVTPNMVTILSIFVGLGGGLCFVHTPYDLRWAVAGILCMVVANIMDCIDGQLARLTGIKSEIGRILDGIAGDIWFACIYICFIIRLTAEYPDALGSMTTGILIAVGLLSGISHLVQAAVTDYYKTLHLFFISPEKGKEFERSTSIRRRVKAMPHGVNRLFSSLYYYYTLIQERATPRLQRLLDQLEADYPQNTIPETLRQHLRKDSRRIMNIVDFLTFNGRTIPLFLIVLSGHIWLYFVFEILILNTVLVLGIRRHEAMCRHHLKERR | failed |
| MNEQIPHDKSLDNSLTLLKEGYLFIKNRTERYNSDLFQARLLGKNFICMTGAEAAKVFYDTDRFQRQNALPKRVQKSLFGVNAIQGMDGSAHIHRKMLFLSLMTPPHQKRLAELMTEEWKAAVTRWEKADEVVLFEEAKEILCRVACYWAGVPLKETEVKERADDFIDMVDAFGAVGPRHWKGRRARPRAEEWIEVMIEDARAGLLKTTSGTALHEMAFHTQEDGSQLDSRMAAIELINVLRPIVAISYFLVFSALALHEHPKYKEWLRSGNSREREMFVQEVRRYYPFGPFLGALVKKDFVWNNCEFKKGTSVLLDLYGTNHDPRLWDHPDEFRPERFAEREENLFDMIPQGGGHAEKGHRCPGEGITIEVMKASLDFLVHQIEYDVPEQSLHYSLARMPSLPESGFVMSGIRRKS | not failed |
| MNEQPAACRIKVEALGAGFAPAAEQWAERLGLALQVDEAEFALQVGEQGLQLQQLGPDAPGPVRVDFVEGGAAHRRLYGGGSGQMIAKAVGVAQGVRPRVLDATAGLGKDGFVLATLGCEMSLIERQPLIGALLEDGLARAAQDAEVGPIVARMHLLKGNSIELMRNWQGEPPQVIYLDPMFPHREKSALVKKEMRLFRPLVGDDNDAPALLAAALALASHRVVVKRPRKAPCIEGPKPSHGLEGKSSRYDIYPKKALKALEHHHHHH | failed |
| MNERPATIEELICAAEARLRADPTQVKTVIEDLAHLEAQGYPAGPATVLIFDGNARVMSGDFAGARPVLEKGLALSTELEEPTLQVRALTGLAVLHVGTGAYGQALEYHMQSMQLARTLENGGLLSRSLIYVGSLYAALRNFEQAQAYHREAVEHAASAGRSTFMARLALATDEAQLGHLEEALQQRRELLVEARQTASRAEEAFVLADLAANLLQLDQRAEARQLASEALKRAEALGLQLEKGQALIILASLDIREGQFESAHQALHEVLEIGQRLASIQLLIPVHEELSRLFEQQGDFAGALRHTRVHYELKSSELTRLAERRSQVLEAELKVELLRQQAEEKERQNLALVAINEHLRETQKRLQYAATHDALTGLLVRTALEETVEDDLLLSPERRRALFMIDVDHFKQINDALGHHVGDRFLQELARRLRGALRPTDIVARQGGDEFTIYLRELDSPEEAVALGQQLLRDIAAPVQVEGHLLNVTVSIGIAVYPDDGRDVMTLEKHADLALYRAKEQRHQVCRFQKPAD | failed |
| MNESPKEGAGGAPDYDVWEAEVKSSRGLPLVWLIPLVALGIGIWLAYRTLSEEGPTITLLFKEAPGLEAGKSKIKFKDVEIGTVESVVLNEDLTGVVVTAKMEKHVATHLGENTAFWVVKPELGLGGVSGLDTLMAGNYIAVEFGGGKVVRRFVGLERPPRIKADTPGRSFFLSADNAGPLKYGTPVYFRDIEVGQVVNVGLAEDNRSVQVEIFIDAPYHRLVHNSTRFWQVSGIDLSLSAQGVNLKVGSIMSLLQGGITFETPTLNDPKVQSSEPNTRFRLHKDFASIAEGTYTLRQPYLLFFDDSVRGLNVGAPVELKGIRVGTVTELKLALDFGAHKIRIPVVIEIDPERLIPYGAEEIIERAKKEYKAAMEAGRRPFMEKLVERGLRARLRTGNLLTGQLYVDLDFYPESPPKSLDYSGQYPELPTLPSVADELQRNVTEIIANLKKIPLDKIGQELLGTVQGSNRLLNSPELKGAVGSLNLALKDLRHLAQTADREMVTLTSAAEKSLSSTARVLEQLEPGSAMAVDISNALEELAASARSIRALTDYLERHPEALLHGKGGSGGKP | failed |
| MNESVDTDEATTPLVSAIIPTYGRNERLSSAIQSVLEQTYDNIELFVVDDASPTPVRETLDSFDPTVENSFRILRHDENQGANAARNTGIRASDGRYVAFLDDDDQWDETKITKQVQAFQESDSETGVVYTGVRKDGPEGTTVSTPVASGDVMKDLLTGTNFGQFSSVMVDTTVIETAGLPDERLPAWQDREWFFRLAQHTHFRPVRETLTYRQTGLPGSITKKYEQKRDVAYPMLISKHDWVAAEYGIYYERMFKATMRRSLARSAVRADRYKEARKYFLLSALANPLYWPVYPHLFASLGGKWSYESIASLRQQVTNGPASGTLEHHHHHH | failed |
| MNEYDEECLLTFLKKQSQLFDEPVAETMEEAEAFLEDCMAVVVDSLDEVREYFEESGADVENMLEHHHHHH | not failed |
| MNFDLYMNGVVEQARNEIESAGYEQLTTAEDVDKVLKQDGTTLVMINSVCGCAGGIARPAASHALHYDVLPDRLVTVFAGQDKEATQRAREYFEGYAPSSPSFALVKDGKITEMIERHQIEGHDVMNVINQLQTLFNKYC | not failed |
| MNFDTIIIGGGMAGLSCALRCLEAGLKTAVIASGQSALHFSSGSIDVLAKTPSGKHVINPMDSLETFSKEYPSHPYAALGKETVERAINWYKTTLSAIGVPLTSQKDGLNHYRLTPLGTMKSTWLSQPFVHQFPMDLEKNKTQKMVLITIDGFRDFQPKLAQDNLKQITQLSDLEIATASISLSAFNDIQRNHCELRSIDISRLLSKRANRQELAYALQQHANPGDLVVLPSIFGNGTGLSYLREIEQLTKLTLCEVPTMPPSLLGIRLEESMKHAFIELGGTMLNGDHVVQGEFSYVDKSDPEHSHYRLNRLFTKNHGDFPLQAKQFVLATGSFFSQGLKANVDSMIEPIFGLDIAQSDKRTDWYSHDFFSTQSHPFLSMGIKTTANFQAIKSGHVIDNLYCAGAILSGYNPILEGSGSGVAISSGFHAAESIIEQLQCSDSLQNNNTKAEVAL | failed |
